Measured values as given in US20210054094A1 (Hoffmann-La Roche, published 2021).
Changes are numbered by the printed parent chain. Values belong to the binder of their own block, whether it stands above or below them.

Molecular target: human GPRC5D (human, UniProt Q9NZD1 1-345)
Test: cell-based or functional assay

human GPRC5D, sequence (Q9NZD1 whole entry): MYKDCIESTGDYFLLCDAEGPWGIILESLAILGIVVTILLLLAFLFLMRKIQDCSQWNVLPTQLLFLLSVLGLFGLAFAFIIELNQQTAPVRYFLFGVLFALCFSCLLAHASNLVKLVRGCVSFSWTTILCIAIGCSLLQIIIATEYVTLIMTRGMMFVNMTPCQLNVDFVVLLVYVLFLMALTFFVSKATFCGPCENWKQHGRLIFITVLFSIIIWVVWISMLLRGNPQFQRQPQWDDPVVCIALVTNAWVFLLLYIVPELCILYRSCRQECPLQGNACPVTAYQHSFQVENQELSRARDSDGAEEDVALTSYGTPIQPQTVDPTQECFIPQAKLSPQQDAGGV

B1: P1AE5739 (antibody, V domains shown)
VH: EVQLVESGGGVVQPGRSLRLSCAASGFSFSNYGMAWVRQAPGKGLEWVASISTGGGNTYYRDSVKGRFTISRDNAKNTLYLQMNSLRAEDTAVYYCTRHDRGGLYWGQGTMVTVSS
VL: DIVMTQSPLSLPVTPGEPASISCRSSKSLLHSNGITYVYWYLQKPGQSPQVLIYRMSNLASGVPDRFSGSGSGTDFTLKISRVEAEDVGVYHCGQLLENPYTFGQGTKLEIK
CAR-J2 EC50 (PGLALA-CAR-J activation, L363 target cells): 0.0235 µg/mL

B2: P1AE5743 (antibody, V domains shown)
VH: B1 VH
VL: EIVLTQSPGTLSLSPGERATLSCRASKSLLHSNGITYVYWYQQKPGQAPRLLIYRMSNLASGIPDRFSGSGSGTDFTLTISRLEPEDFAVYHCGQLLENPYTFGQGTKLEIK
CAR-J2 EC50 (PGLALA-CAR-J activation, L363 target cells): 0.583 µg/mL

B3: P1AE5742 (antibody, V domains shown)
VH: B1 VH
VL: DIVMTQSPDSLAVSLGERATINCKSSKSLLHSNGITYVYWYQQKPGQPPKLLIYRMSNLASGVPDRFSGSGSGTDFTLTISSLQAEDVAVYHCGQLLENPYTFGQGTKLEIK
CAR-J2 EC50 (PGLALA-CAR-J activation, L363 target cells): 0.0619 µg/mL

B4: P1AE5738 (antibody, V domains shown)
VH: B1 VH with E1Q, A75S
VL: B2 VL
CAR-J2 EC50 (PGLALA-CAR-J activation, L363 target cells): 0.397 µg/mL

B5: P1AE5734 (antibody, V domains shown)
VH: B1 VH with E1Q, A75S
VL: B1 VL
CAR-J2 EC50 (PGLALA-CAR-J activation, L363 target cells): 0.0415 µg/mL

B9: P1AE5749 (antibody, V domains shown)
VH: B1 VH with E1Q, R61A, A75S
VL: B2 VL
CAR-J2 EC50 (PGLALA-CAR-J activation, L363 target cells): 0.0826 µg/mL

B10: P1AE5745 (antibody, V domains shown)
VH: B1 VH with E1Q, R61A, A75S
VL: B1 VL with Q47K
CAR-J2 EC50 (PGLALA-CAR-J activation, L363 target cells): 0.00162 µg/mL

B11: P1AE5759 (antibody, V domains shown)
VH: B1 VH with V11L, R16G
VL: B2 VL
CAR-J2 EC50 (PGLALA-CAR-J activation, L363 target cells): 0.0157 µg/mL

B12: P1AE5762 (antibody, V domains shown)
VH: B1 VH with V11L, R16G, R61A
VL: B1 VL with V51L, L59R
CAR-J2 EC50 (PGLALA-CAR-J activation, L363 target cells): 0.0842 µg/mL

B16: P1AE5757 (antibody, V domains shown)
VH: B1 VH with V11L, R16G
VL: B1 VL with V51L, L59R
CAR-J2 EC50 (PGLALA-CAR-J activation, L363 target cells): 0.145 µg/mL

B18: P1AE5744 (antibody, V domains shown)
VH: B1 VH with E1Q, R61A, A75S
VL: B1 VL
CAR-J2 EC50 (PGLALA-CAR-J activation, L363 target cells): 0.00363 µg/mL

B19: P1AE5758 (antibody, V domains shown)
VH: B1 VH with V11L, R16G
VL: B3 VL
CAR-J2 EC50 (PGLALA-CAR-J activation, L363 target cells): 0.19 µg/mL

B20: P1AE5735 (antibody, V domains shown)
VH: B1 VH with E1Q, A75S
VL: B1 VL with Q47K
CAR-J2 EC50 (PGLALA-CAR-J activation, L363 target cells): 0.0821 µg/mL

B24: P1AE5740 (antibody, V domains shown)
VH: B1 VH
VL: B1 VL with Q47K
CAR-J2 EC50 (PGLALA-CAR-J activation, L363 target cells): 0.00896 µg/mL

B25: P1AE5754 (antibody, V domains shown)
VH: B1 VH with R61A
VL: B2 VL
CAR-J2 EC50 (PGLALA-CAR-J activation, L363 target cells): 0.00889 µg/mL

B26: P1AE5756 (antibody, V domains shown)
VH: B1 VH with V11L, R16G
VL: B1 VL with Q47K
CAR-J2 EC50 (PGLALA-CAR-J activation, L363 target cells): 0.17 µg/mL

B29: P1AE5741 (antibody, V domains shown)
VH: B1 VH
VL: B1 VL with V51L, L59R
CAR-J2 EC50 (PGLALA-CAR-J activation, L363 target cells): 0.0014 µg/mL

B30: P1AE5747 (antibody, V domains shown)
VH: B1 VH with E1Q, R61A, A75S
VL: B3 VL
CAR-J2 EC50 (PGLALA-CAR-J activation, L363 target cells): 0.183 µg/mL

More lines, now with the values ahead:

CAR-J2 EC50 (PGLALA-CAR-J activation, L363 target cells): 0.152 µg/mL
B6: P1AE5755 (antibody, V domains shown)
VH: B1 VH with V11L, R16G
VL: B1 VL

CAR-J2 EC50 (PGLALA-CAR-J activation, L363 target cells): 0.00295 µg/mL
B7: P1AE5737 (antibody, V domains shown)
VH: B1 VH with E1Q, A75S
VL: B3 VL

CAR-J2 EC50 (PGLALA-CAR-J activation, L363 target cells): 0.00547 µg/mL
B8: P1AE5763 (antibody, V domains shown)
VH: B1 VH with V11L, R16G, R61A
VL: B3 VL

CAR-J2 EC50 (PGLALA-CAR-J activation, L363 target cells): 0.00644 µg/mL
B13: P1AE5751 (antibody, V domains shown)
VH: B1 VH with R61A
VL: B1 VL with Q47K

CAR-J2 EC50 (PGLALA-CAR-J activation, L363 target cells): 0.0782 µg/mL
B14: P1AE5764 (antibody, V domains shown)
VH: B1 VH with V11L, R16G, R61A
VL: B2 VL

CAR-J2 EC50 (PGLALA-CAR-J activation, L363 target cells): 0.0206 µg/mL
B15: P1AE5750 (antibody, V domains shown)
VH: B1 VH with R61A
VL: B1 VL

CAR-J2 EC50 (PGLALA-CAR-J activation, L363 target cells): 0.514 µg/mL
B17: P1AE5746 (antibody, V domains shown)
VH: B1 VH with E1Q, R61A, A75S
VL: B1 VL with V51L, L59R

CAR-J2 EC50 (PGLALA-CAR-J activation, L363 target cells): 0.0746 µg/mL
B21: P1AE5761 (antibody, V domains shown)
VH: B1 VH with V11L, R16G, R61A
VL: B1 VL with Q47K

CAR-J2 EC50 (PGLALA-CAR-J activation, L363 target cells): 0.03 µg/mL
B22: P1AE5753 (antibody, V domains shown)
VH: B1 VH with R61A
VL: B3 VL

CAR-J2 EC50 (PGLALA-CAR-J activation, L363 target cells): 0.19 µg/mL
B23: P1AE5760 (antibody, V domains shown)
VH: B1 VH with V11L, R16G, R61A
VL: B1 VL

CAR-J2 EC50 (PGLALA-CAR-J activation, L363 target cells): 0.509 µg/mL
B27: P1AE5752 (antibody, V domains shown)
VH: B1 VH with R61A
VL: B1 VL with V51L, L59R

CAR-J2 EC50 (PGLALA-CAR-J activation, L363 target cells): 0.00138 µg/mL
B28: P1AE5736 (antibody, V domains shown)
VH: B1 VH with E1Q, A75S
VL: B1 VL with V51L, L59R
